Measurements as given in patent US20100158968A1 (PURDUE RESEARCH FOUNDATION, published 2010).

Target: mitogen-activated protein kinase-activated protein kinase 2 (human MK2) (human, UniProt P49137 46-400, limits assumed)
Assay: cell-based or functional assay

Sequence of mitogen-activated protein kinase-activated protein kinase 2 (human MK2) (P49137 46-400 limits assumed): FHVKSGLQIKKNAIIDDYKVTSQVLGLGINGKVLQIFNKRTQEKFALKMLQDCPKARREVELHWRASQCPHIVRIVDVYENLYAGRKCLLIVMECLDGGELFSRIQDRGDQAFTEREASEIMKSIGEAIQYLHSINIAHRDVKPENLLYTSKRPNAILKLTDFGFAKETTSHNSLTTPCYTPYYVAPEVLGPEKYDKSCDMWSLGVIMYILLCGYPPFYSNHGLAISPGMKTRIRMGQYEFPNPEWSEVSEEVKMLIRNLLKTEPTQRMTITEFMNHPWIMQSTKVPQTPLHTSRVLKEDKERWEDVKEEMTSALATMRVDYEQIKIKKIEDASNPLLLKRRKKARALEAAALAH

IC50 (radiometric kinase assay), fold lower than the therapeutic inhibitor peptide incorporating the PTD peptide … [SEQ ID NO: 5]: > 30 fold
Binder: WLRRRIKAWLRRIKALNRQLGVAA
